Read-outs that look alike come from different tables or passages of the source.
Assays:
pro-HB-EGF on Vero cells [1] = assay: Schild regression from inhibition of diphtheria toxin cytotoxicity on Vero cells
pro-HB-EGF on Vero cells [2] = assay: as above; remark: listed apart in the source
pro-HB-EGF on Vero cells [3] = assay: ratio of Kd values from Schild regression (Vero cytotoxicity)

Molecule	Kd (pro-HB-EGF on Vero cells [1])	Kd (pro-HB-EGF on Vero cells [2])	fold lower affinity for HB-EGF and pro-HB-EGF against CRM197 (pro-HB-EGF on Vero cells [3])
CRM197 (natural mutant of diphtheria toxin comprising the G52E mutation) (from UniProt P00587 26-560) (ligand)	3.1 nM	3.1 nM	
wild-type DTR protein (DTRWT) (from UniProt P00587 405-560) (ligand)	6.5 nM	6.5 nM	2 fold
Clone 1D6 (DTR carrying the mutations Y380K/Q387E/L390T) (designed binder) MGKSPGHKTEPFTHDGYAVSWNTVEDSIIRTGFQGESGHDIKITAENTPLPIAGVLLPTIPGKLDVNKSKTHISVNGRKIRMRCRAIDGDVTFCRPKSPVYVGNGVHANLHVAFHRSSSEKIHSNEISSDSIGVLGYQKTVDHTKVNSKLSLFFEIKS	0.025 nM		

Reference: patent publication US20150051146A1
